Source: paper PMC9482650, “Quantitative fragmentomics allow affinity mapping of interactomes” (Nature Communications, 2022)

T1: SNTB1, Q13884
T1 sequence (Q13884 107-205, limits assumed, looked up): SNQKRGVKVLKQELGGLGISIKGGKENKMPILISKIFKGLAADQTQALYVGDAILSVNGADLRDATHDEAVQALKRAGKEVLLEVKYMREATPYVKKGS

T2: PDZD7_3, Q9H5P4
T2 sequence (Q9H5P4 857-944, limits assumed, looked up): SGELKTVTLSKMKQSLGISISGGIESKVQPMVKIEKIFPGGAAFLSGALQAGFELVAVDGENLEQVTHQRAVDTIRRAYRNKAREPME

T3: GRIP1_3, Q9Y3R0
T3 sequence (Q9Y3R0 247-346, limits assumed, looked up): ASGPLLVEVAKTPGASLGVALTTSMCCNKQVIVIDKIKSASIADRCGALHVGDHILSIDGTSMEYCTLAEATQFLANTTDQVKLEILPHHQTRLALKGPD

T4: MPDZ_10, O75970
T4 sequence (O75970 1624-1722, limits assumed, looked up): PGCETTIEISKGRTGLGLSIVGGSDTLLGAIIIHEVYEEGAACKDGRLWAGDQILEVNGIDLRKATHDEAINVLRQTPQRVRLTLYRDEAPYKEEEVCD

T5: TX1BP3, O14907
T5 sequence (O14907 10-122, limits assumed, looked up): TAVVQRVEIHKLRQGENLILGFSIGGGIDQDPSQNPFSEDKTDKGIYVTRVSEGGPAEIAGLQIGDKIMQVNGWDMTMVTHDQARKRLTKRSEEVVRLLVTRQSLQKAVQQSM

T6: SYNJ2BP, P57105
T6 sequence (P57105 8-110, limits assumed, looked up): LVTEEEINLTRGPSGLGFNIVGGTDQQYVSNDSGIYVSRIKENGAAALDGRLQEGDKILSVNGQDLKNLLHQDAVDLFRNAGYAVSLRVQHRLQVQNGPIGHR

T7: GRIP1_7, Q9Y3R0
T7 sequence (Q9Y3R0 999-1096, limits assumed, looked up): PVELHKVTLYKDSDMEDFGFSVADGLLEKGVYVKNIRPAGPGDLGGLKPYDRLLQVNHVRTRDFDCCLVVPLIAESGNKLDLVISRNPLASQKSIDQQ

T8: APBA1_1, Q02410
T8 sequence (Q02410 651-752, limits assumed, looked up): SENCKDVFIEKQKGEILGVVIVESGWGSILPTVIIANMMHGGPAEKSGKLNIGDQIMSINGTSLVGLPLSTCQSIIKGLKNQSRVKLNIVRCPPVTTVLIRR

T9: APBA1_2, Q02410
T9 sequence (Q02410 742-832, limits assumed, looked up): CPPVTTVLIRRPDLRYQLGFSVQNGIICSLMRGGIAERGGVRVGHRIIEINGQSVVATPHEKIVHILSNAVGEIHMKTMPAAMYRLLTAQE

T10: LNX2_3, Q8N448
T10 sequence (Q8N448 463-564, limits assumed, looked up): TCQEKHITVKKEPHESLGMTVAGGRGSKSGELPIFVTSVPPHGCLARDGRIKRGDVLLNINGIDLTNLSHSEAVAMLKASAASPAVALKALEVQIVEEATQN

T11: SHANK1, Q9Y566
T11 sequence (Q9Y566 658-767, limits assumed, looked up): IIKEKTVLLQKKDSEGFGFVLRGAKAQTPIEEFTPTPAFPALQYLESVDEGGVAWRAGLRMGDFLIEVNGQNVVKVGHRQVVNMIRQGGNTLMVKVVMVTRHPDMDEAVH

T12: MPP7, Q5T2T1
T12 sequence (Q5T2T1 134-230, limits assumed, looked up): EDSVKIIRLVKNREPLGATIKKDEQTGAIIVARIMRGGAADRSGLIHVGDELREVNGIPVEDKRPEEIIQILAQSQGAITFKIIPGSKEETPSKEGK

T13: HTRA3, P83110
T13 sequence (P83110 354-453, limits assumed, looked up): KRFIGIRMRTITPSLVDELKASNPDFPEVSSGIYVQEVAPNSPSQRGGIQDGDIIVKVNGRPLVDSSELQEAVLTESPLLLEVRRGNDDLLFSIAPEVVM

B1: MCM7, P33993 (peptide)
chain: NASRTRITFV

target: PARD3_3, Q8TEW0; assay: holdup assay; parameters: key: below the threshold = too weak to quantify, mostly under pKd 3.1 to 4; conditions: plain residues with an end cap or a label only (N-terminal biotin on a linker: ado-ado)
Sequence (Q8TEW0 582-685): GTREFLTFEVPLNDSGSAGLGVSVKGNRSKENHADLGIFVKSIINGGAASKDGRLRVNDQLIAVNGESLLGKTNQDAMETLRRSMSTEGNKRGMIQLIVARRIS

Binder	pKd
B1	below the threshold

target: Inadl_1, Q8NI35; assay: holdup assay; parameters: key: below the threshold = too weak to quantify, mostly under pKd 3.1 to 4; conditions: plain residues with an end cap or a label only (N-terminal biotin on a linker: ado-ado)
Sequence (Q8NI35 113-229): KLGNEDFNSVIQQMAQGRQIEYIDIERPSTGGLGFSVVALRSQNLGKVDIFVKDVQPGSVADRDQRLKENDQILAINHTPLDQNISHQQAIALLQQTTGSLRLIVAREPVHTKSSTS

Binder	pKd
B1	below the threshold

target: DLG2_2, Q15700; assay: holdup assay; parameters: key: below the threshold = too weak to quantify, mostly under pKd 3.1 to 4; conditions: plain residues with an end cap or a label only (N-terminal biotin on a linker: ado-ado)
Sequence (Q15700 189-283): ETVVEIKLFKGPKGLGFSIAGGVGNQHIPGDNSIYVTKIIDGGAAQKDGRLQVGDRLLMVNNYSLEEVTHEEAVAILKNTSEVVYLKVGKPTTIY

Binder	pKd
B1	4.73

target: GIPC2, Q8TF65; assay: holdup assay; parameters: key: below the threshold = too weak to quantify, mostly under pKd 3.1 to 4; conditions: plain residues with an end cap or a label only (N-terminal biotin on a linker: ado-ado)
Sequence (Q8TF65 112-203): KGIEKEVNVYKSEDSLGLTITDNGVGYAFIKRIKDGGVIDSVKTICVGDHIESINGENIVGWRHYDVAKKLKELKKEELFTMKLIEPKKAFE

Binder	pKd
B1	below the threshold

target: MAST1, Q9Y2H9; assay: holdup assay; parameters: key: below the threshold = too weak to quantify, mostly under pKd 3.1 to 4; conditions: plain residues with an end cap or a label only (N-terminal biotin on a linker: ado-ado)
Sequence (Q9Y2H9 962-1065): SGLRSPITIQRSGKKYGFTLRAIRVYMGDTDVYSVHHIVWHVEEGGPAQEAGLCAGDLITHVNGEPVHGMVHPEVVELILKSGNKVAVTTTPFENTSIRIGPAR

Binder	pKd
B1	4.39

target: T1, SNTB1, Q13884; assay: holdup assay; parameters: key: below the threshold = too weak to quantify, mostly under pKd 3.1 to 4; conditions: plain residues with an end cap or a label only (N-terminal biotin on a linker: ado-ado)

Binder	pKd
B1	5.13

target: MAGI3_2, Q5TCQ9; assay: holdup assay; parameters: key: below the threshold = too weak to quantify, mostly under pKd 3.1 to 4; conditions: plain residues with an end cap or a label only (N-terminal biotin on a linker: ado-ado)
Sequence (Q5TCQ9 398-503): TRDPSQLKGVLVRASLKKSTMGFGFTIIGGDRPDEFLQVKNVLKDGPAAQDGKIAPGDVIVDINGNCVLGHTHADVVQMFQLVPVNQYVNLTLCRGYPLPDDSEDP

Binder	pKd
B1	5.49

target: T2, PDZD7_3, Q9H5P4; assay: holdup assay; parameters: key: below the threshold = too weak to quantify, mostly under pKd 3.1 to 4; conditions: plain residues with an end cap or a label only (N-terminal biotin on a linker: ado-ado)

Binder	pKd
B1	5.26

target: T3, GRIP1_3, Q9Y3R0; assay: holdup assay; parameters: key: below the threshold = too weak to quantify, mostly under pKd 3.1 to 4; conditions: plain residues with an end cap or a label only (N-terminal biotin on a linker: ado-ado)

Binder	pKd
B1	below the threshold

target: GRID2IP_2, A4D2P6; assay: holdup assay; parameters: key: below the threshold = too weak to quantify, mostly under pKd 3.1 to 4; conditions: plain residues with an end cap or a label only (N-terminal biotin on a linker: ado-ado)
Sequence (A4D2P6 272-370): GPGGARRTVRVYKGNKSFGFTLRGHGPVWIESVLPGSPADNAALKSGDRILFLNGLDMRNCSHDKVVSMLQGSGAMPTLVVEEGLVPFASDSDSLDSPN

Binder	pKd
B1	4.97

target: T4, MPDZ_10, O75970; assay: holdup assay; parameters: key: below the threshold = too weak to quantify, mostly under pKd 3.1 to 4; conditions: plain residues with an end cap or a label only (N-terminal biotin on a linker: ado-ado)

Binder	pKd
B1	4.29

target: T5, TX1BP3, O14907; assay: holdup assay; parameters: key: below the threshold = too weak to quantify, mostly under pKd 3.1 to 4; conditions: plain residues with an end cap or a label only (N-terminal biotin on a linker: ado-ado)

Binder	pKd
B1	4.88

target: FRMPD2_1, Q68DX3; assay: holdup assay; parameters: key: below the threshold = too weak to quantify, mostly under pKd 3.1 to 4; conditions: plain residues with an end cap or a label only (N-terminal biotin on a linker: ado-ado)
Sequence (Q68DX3 770-861): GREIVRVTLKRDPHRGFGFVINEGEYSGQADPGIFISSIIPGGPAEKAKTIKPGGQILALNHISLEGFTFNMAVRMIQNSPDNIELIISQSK

Binder	pKd
B1	below the threshold

target: T6, SYNJ2BP, P57105; assay: holdup assay; parameters: key: below the threshold = too weak to quantify, mostly under pKd 3.1 to 4; conditions: plain residues with an end cap or a label only (N-terminal biotin on a linker: ado-ado)

Binder	pKd
B1	4.44

target: T7, GRIP1_7, Q9Y3R0; assay: holdup assay; parameters: key: below the threshold = too weak to quantify, mostly under pKd 3.1 to 4; conditions: plain residues with an end cap or a label only (N-terminal biotin on a linker: ado-ado)

Binder	pKd
B1	below the threshold

target: T8, APBA1_1, Q02410; assay: holdup assay; parameters: key: below the threshold = too weak to quantify, mostly under pKd 3.1 to 4; conditions: plain residues with an end cap or a label only (N-terminal biotin on a linker: ado-ado)

Binder	pKd
B1	below the threshold

target: GRID2IP_1, A4D2P6; assay: holdup assay; parameters: key: below the threshold = too weak to quantify, mostly under pKd 3.1 to 4; conditions: plain residues with an end cap or a label only (N-terminal biotin on a linker: ado-ado)
Sequence (A4D2P6 1-87): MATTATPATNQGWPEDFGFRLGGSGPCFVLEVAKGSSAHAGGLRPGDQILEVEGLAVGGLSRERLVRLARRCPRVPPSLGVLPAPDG

Binder	pKd
B1	below the threshold

target: T9, APBA1_2, Q02410; assay: holdup assay; parameters: key: below the threshold = too weak to quantify, mostly under pKd 3.1 to 4; conditions: plain residues with an end cap or a label only (N-terminal biotin on a linker: ado-ado)

Binder	pKd
B1	4.71

target: T10, LNX2_3, Q8N448; assay: holdup assay; parameters: key: below the threshold = too weak to quantify, mostly under pKd 3.1 to 4; conditions: plain residues with an end cap or a label only (N-terminal biotin on a linker: ado-ado)

Binder	pKd
B1	below the threshold

target: T11, SHANK1, Q9Y566; assay: holdup assay; parameters: key: below the threshold = too weak to quantify, mostly under pKd 3.1 to 4; conditions: plain residues with an end cap or a label only (N-terminal biotin on a linker: ado-ado)

Binder	pKd
B1	below the threshold

target: NHERF4_4, Q86UT5; assay: holdup assay; parameters: key: below the threshold = too weak to quantify, mostly under pKd 3.1 to 4; conditions: plain residues with an end cap or a label only (N-terminal biotin on a linker: ado-ado)
Sequence (Q86UT5 464-550): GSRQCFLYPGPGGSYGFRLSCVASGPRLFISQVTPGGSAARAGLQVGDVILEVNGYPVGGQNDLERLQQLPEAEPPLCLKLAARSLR

Binder	pKd
B1	below the threshold

target: T12, MPP7, Q5T2T1; assay: holdup assay; parameters: key: below the threshold = too weak to quantify, mostly under pKd 3.1 to 4; conditions: plain residues with an end cap or a label only (N-terminal biotin on a linker: ado-ado)

Binder	pKd
B1	below the threshold

target: T13, HTRA3, P83110; assay: holdup assay; parameters: key: below the threshold = too weak to quantify, mostly under pKd 3.1 to 4; conditions: plain residues with an end cap or a label only (N-terminal biotin on a linker: ado-ado)

Binder	pKd
B1	4.51
